{"source": "patent US20150166666A1", "about": "(Chugai, published 2015)", "binders": {"B1": {"name": "TOCILIZUMAB (H chain WT-IgG1; L chain WT-kappa) (antibody)", "heavy": "not shown", "light": "not shown", "notes": "IgG1/kappa; also called TOCILIZUMAB-IgG1; humanized anti-IL-6 receptor IgG1 antibody"}, "B2": {"name": "RDC-23 (H chain RDC23H-IgG1; L chain RDC-23L-kappa) (antibody, V domains shown)", "VH": "QVQLQESGPGLVRPSQTLSLTCTVSGYSITSDHAWSWVRQPPGRGLEWIGYISYSGITTYNPSLKSRVTMLRDTSKNQFSLRLSSVTAADTAVYYCARVLARITAMDYWGQGSLVTVSS", "VL": "DIQMTQSPSSLSASVGDRVTITCRASQDISSYLNWYQQKPGKAPKLLIYYTSRLHSGVPSRFSGSGSGTDFTFTISSLQPEDIATYYCGQGNRLPYTFGQGTKVEIKR"}, "B3": {"name": "H53/L28 (H chain H53-IgG1; L chain L28-kappa) (antibody, V domains shown)", "VH": "QVQLQESGPGLVKPSETLSLTCAVSGYSISDDHAWSWVRQPPGEGLEWIGYISYSGITNYNPSLKGRVTISRDTSKNQFSLKLSSVTAADTAAYYCARSLARTTAMDYWGEGTLVTVSS", "VL": "DIQMTQSPSSLSASVGDSVTITCQASQDISSYLNWYQQKPGKAPELLIYYGSELHSGVPSRFSGSGSGTDFTFTISSLEAEDAATYYCQQGNSLPYTFGQGTKVEIER", "notes": "IgG1/kappa; also called TOCILIZUMAB with reduced isoelectric point"}, "B4": {"name": "H3pI/L73 (H chain H3pI-IgG1; L chain L73-kappa) (antibody, V domains shown)", "VH": "B3 VH with Y27H, D31H, W35H", "VL": "B3 VL with D28H, Y32H, E53H, Q89G, S93R", "notes": "IgG1/kappa"}, "B5": {"name": "TOCILIZUMAB-M58 (H chain WT-M58; L chain WT-kappa) (antibody, IgG2)", "heavy": "QVQLQESGPGLVRPSQTLSLTCTVSGYSITSDHAWSWVRQPPGRGLEWIGYISYSGITTYNPSLKSRVTMLRDTSKNQFSLRLSSVTAADTAVYYCARSLARTTAMDYWGQGSLVTVSSASTKGPSVFPLAPSSKSTSGGTAALGCLVKDYFPEPVTVSWNSGALTSGVHTFPAVLQSSGLYSLSSVVTVPSSNFGTQTYTCNVDHKPSNTKVDKTVERKSCVECPPCPAPPVAGPSVFLFPPKPKDTLMISRTPEVTCVVVDVSQEDPEVQFNWYVDGVEVHNAKTKPREEQFNSTFRVVSVLTVVHQDWLNGKEYKCKVSNKGLPAPIEKTISKTKGQPREPQVYTLPPSQEEMTKNQVSLTCLVKGFYPSDIAVEWESNGQPENNYKTTPPMLDSDGSFFLYSKLTVDKSRWQEGNVFSCSVMHEALHNHYTQKSLSLSP", "light": "not shown", "notes": "M58 constant region: altered IgG2 (SKSC with further changes, Gly446 and Lys447 deleted)"}, "B6": {"name": "TOCILIZUMAB-M73 (H chain WT-M73; L chain WT-kappa) (antibody)", "heavy": "B5 heavy with N432A", "light": "not shown", "notes": "M73 constant region: M58 with asparagine 434 (EU) changed to alanine"}, "B7": {"name": "Fv3-M73 (H chain VH4-M73; L chain VL1-kappa) (antibody, V domains shown)", "VH": "QVQLQESGPGLVKPSETLSLTCAVSGHSISHDHAWSWVRQPPGEGLEWIGFISYSGITNYNPTLQGRVTISRDNSKNTLYLQMNSLRAEDTAVYYCARSLARTTAMDYWGEGTLVTVSS", "VL": "B3 VL with Q27R, Y32H, E53H, H55L, Q89G, S93R", "notes": "Fully humanized"}, "B8": {"name": "Fv4-M73 (H chain VH3-M73; L chain VL3-kappa) (antibody, V domains shown)", "VH": "B7 VH with T63S", "VL": "B3 VL with Q27T, Y32H, E53H, H55L, Q89G, S93R", "notes": "Fully humanized"}}, "key": {"[1]": {"target": "T1, Soluble recombinant human IL-6 receptor (SR344) (human, UniProt P08887 20-344, limits assumed, biotinylated (sites not given) only in the membrane-type dissociation assay)", "T1 sequence (looked up)": "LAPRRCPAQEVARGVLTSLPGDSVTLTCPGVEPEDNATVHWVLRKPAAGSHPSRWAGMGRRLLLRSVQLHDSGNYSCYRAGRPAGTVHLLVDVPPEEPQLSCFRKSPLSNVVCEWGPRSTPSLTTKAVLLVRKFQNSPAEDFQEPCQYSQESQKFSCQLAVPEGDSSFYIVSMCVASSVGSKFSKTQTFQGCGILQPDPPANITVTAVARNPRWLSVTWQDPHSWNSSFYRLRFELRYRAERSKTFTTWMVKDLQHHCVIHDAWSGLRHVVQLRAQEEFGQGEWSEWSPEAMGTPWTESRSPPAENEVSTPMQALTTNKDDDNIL", "experiment": "cell-based or functional assay"}, "[2]": {"target": "T2, Soluble human FcRn (complex of FcRn and beta2-microglobulin) (human, UniProt P55899 24-290; P16213 21-119)", "T2 construct": "Both constructs are stated with their signal regions (Met1-Leu290; Met1-Met119)", "T2 sequence (P55899 24-290 limits assumed, chain 1 of 2)": "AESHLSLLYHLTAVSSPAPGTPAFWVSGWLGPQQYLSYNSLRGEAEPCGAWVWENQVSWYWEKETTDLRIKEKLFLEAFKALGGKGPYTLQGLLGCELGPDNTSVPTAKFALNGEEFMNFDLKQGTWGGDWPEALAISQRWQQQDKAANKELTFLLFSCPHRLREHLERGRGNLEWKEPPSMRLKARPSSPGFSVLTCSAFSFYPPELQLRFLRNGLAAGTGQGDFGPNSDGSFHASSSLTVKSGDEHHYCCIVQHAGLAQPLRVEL", "T2 sequence (P16213 21-119 limits assumed, chain 2 of 2)": "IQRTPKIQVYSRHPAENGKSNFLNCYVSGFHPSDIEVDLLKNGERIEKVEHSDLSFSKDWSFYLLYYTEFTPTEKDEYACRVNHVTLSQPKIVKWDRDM", "experiment": "Biacore, binding to human FcRn"}, "[3]": {"target": "T1, Soluble recombinant human IL-6 receptor …", "experiment": "SPR, Biacore T100, biotinylated SR344 on streptavidin chip as membrane-type IL-6 receptor, ratio of dissociation rates", "procedure": "(§1) The antigen-antibody reaction with membrane-type IL-6 receptor at pH 5.8 and pH 7.4 was observed using Biacore T100 (GE Healthcare). The binding to membrane-type IL-6 receptor was assessed by evaluating the binding to soluble human IL-6 receptor immobilized onto the sensor chip. SR344 was biotinylated by a method known to those skilled in the art. Based on the affinity between biotin and streptavidin, biotinylated soluble human IL-6 receptor was immobilized onto the sensor chip via streptavidin. All measurements were conducted at 37° C. The mobile phase buffer was 10 mM MES (pH 5.8), 150 mM NaCl, and 0.05% Tween 20. […] The dissociation rate constant (kd (1/s)) at pH 5.8 was calculated using Biacore T100 Evaluation Software (GE Healthcare) by fitting only the dissociation phase at pH 5.8. The sample concentration was 0.25 μg/ml. Binding was carried out in 10 mM MES (pH 7.4), 150 mM NaCl, and 0.05% Tween 20, and dissociation was carried out in 10 mM MES (pH 5.8), 150 mM NaCl, and 0.05% Tween 20. Likewise, the dissociation rate constant (kd (1/s)) at pH 7.4 was calculated using Biacore T100 Evaluation Software (GE Healthcare) by fitting only the dissociation phase at pH 7.4. The sample concentration was 0.5 μg/ml. Binding was carried out in 10 mM MES (pH 7.4), 150 mM NaCl, and 0.05% Tween 20, and dissociation was carried out in 10 mM MES (pH 7.4), 150 mM NaCl, and 0.05% Tween 20."}, "[4]": {"target": "T1, Soluble recombinant human IL-6 receptor …", "experiment": "SPR, Biacore T100, biotinylated SR344 on streptavidin chip as membrane-type IL-6 receptor, ratio of dissociation rates", "procedure": "The rates of dissociation of TOCILIZUMAB, Fv3-M73, and Fv4-M73 from membrane-type IL-6 receptor at pH 7.4 and 5.8 were determined.\nas §1", "remark": "listed apart in the source"}, "[5]": {"target": "T1, Soluble recombinant human IL-6 receptor …", "experiment": "cell-based or functional assay", "remark": "listed apart in the source"}, "[6]": {"target": "T1, Soluble recombinant human IL-6 receptor …", "experiment": "SPR, Biacore T100, soluble IL-6 receptor as analyte", "procedure": "(§2) Antigen-antibody reaction kinetics was analyzed using Biacore T100 (GE Healthcare). The soluble human IL-6 receptor-antibody interaction was measured by immobilizing appropriate amounts of protein A or protein A/G or anti-IgG (γ-chain specific) F(ab′)2 onto a sensor chip by amine coupling method, binding antibodies of interest onto the chip at pH7.4, and then running soluble IL-6 receptor adjusted to various concentrations at pH7.4 over the chip as an analyte. All measurements were carried out at 37° C. The kinetic parameters, association rate constant kₐ (1/Ms) and dissociation rate constant kd (1/s) were calculated from the sensorgrams obtained by measurement. Then, KD (M) was determined based on the rate constants. The respective parameters were determined using Biacore T100 Evaluation Software (GE Healthcare)."}, "[7]": {"target": "T1, Soluble recombinant human IL-6 receptor …", "experiment": "SPR, Biacore T100, antibody captured on chip, soluble IL-6 receptor as analyte; ratio against TOCILIZUMAB", "procedure": "as §2"}, "[8]": {"target": "T2, Soluble human FcRn (complex of FcRn and …)", "experiment": "Biacore, binding to human FcRn", "remark": "listed apart in the source"}}, "note": "Changes are numbered by the printed parent chain. Read-outs that look alike come from different tables or passages of the source."}
{"binder": "B1", "values": [{"measurement": "IC50 (read off the curve)", "setting": "[1]", "value": "~0.5", "unit": "µg/mL"}, {"measurement": "Kd", "setting": "[2]", "value": 1620, "unit": "nM"}, {"measurement": "kd (pH 5.8)/kd (pH 7.4), pH …", "setting": "[3]", "value": 1}, {"measurement": "kd (pH 5.8)/kd (pH 7.4), pH …", "setting": "[4]", "value": 1}]}
{"binder": "B2", "values": [{"measurement": "IC50 (read off the curve)", "setting": "[5]", "value": "~0.02", "unit": "µg/mL"}, {"measurement": "fold higher affinity than TOCILIZUMAB", "setting": "[6]", "value": "~60", "unit": "times"}, {"measurement": "fold affinity relative to TOCILIZUMAB", "setting": "[7]", "value": "~60", "unit": "times"}]}
{"binder": "B3", "values": [{"measurement": "IC50 (read off the curve)", "setting": "[1]", "value": "~0.1", "unit": "µg/mL"}, {"measurement": "fold higher affinity than TOCILIZUMAB", "setting": "[6]", "value": "~6", "unit": "times"}]}
{"binder": "B4", "values": [{"measurement": "kd (pH 5.8)/kd (pH 7.4), pH …", "setting": "[3]", "value": 2.59}]}
{"binder": "B5", "values": [{"measurement": "fold superior binding than TOCILIZUMAB-IgG1", "setting": "[8]", "value": "~1.4", "unit": "times"}]}
{"binder": "B6", "values": [{"measurement": "fold superior binding than TOCILIZUMAB-IgG1", "setting": "[8]", "value": "~3.8", "unit": "times"}]}
{"binder": "B7", "values": [{"measurement": "kd (pH 5.8)/kd (pH 7.4), pH …", "setting": "[4]", "value": 10.9}]}
{"binder": "B8", "values": [{"measurement": "kd (pH 5.8)/kd (pH 7.4), pH …", "setting": "[4]", "value": 10.1}]}
